# Key:
# [1] = tested on: CC(=O)OCC1=C(C(=O)O)N2C(=O)[C@@H](NC(=O)Cc3cccs3)[C@H]2SC1; assay: Michaelis-Menten hydrolysis kinetics, purified enzyme; format: biochemical, Escherichia coli; conditions: active site (catalytic Ser64)
# [2] = tested on: CO/N=C(\C(=O)N[C@@H]1C(=O)N2C(C(=O)O)=C(COC(C)=O)CS[C@H]12)c1csc(N)n1; assay: as above; format: biochemical, Escherichia coli; conditions: active site (catalytic Ser64)
Substance,Km [1] [µM],kcat [1] [s⁻¹],Km [2] [µM],kcat [2] [s⁻¹]
AmpC β-lactamase (Escherichia coli K-12; E235K),24,84.6,77,6.9
AmpC β-lactamase (Escherichia coli K-12; T86I),,,295,9.2

# From publication PMC2815101
